# Reference: US6632633B1, “Process for oxidation of steroids and genetically engineered cells used therein” (Aventis Pharma, S.A., priority 1988, dated 2003)
# Tested on: progesterone
# Assay: In vivo activity of bovine P45017α in whole cells of transformed Kluyveromyces lactis (3H-labelled steroid, RP-HPLC)
# Type: cell-based
# Details: expressed in K. lactis under the lactase promoter
# Procedure: Transformation of K. lactis strain CBS 2360 was performed with pGB 17α-5 as described in Example 14 and in vivo activity was determined in the whole cells of the transformed K. lactis strain. Four independent transformants (17α-3,17α-7,17α-10 and 17α-11) were grown in rich medium (10 g of yeast extracts, 10 g of bactopeptone and 20 g of glucose/liter) for 72 hours to reach an A600 of at least 30. The cells were harvested and resuspended at 1×10^6 cells/ml (A600 =1).
# Five ml of culture were incubated in the presence of ^3H-labelled progesterone (20 μM) for 24 hours at 28° C. and then were extracted with dichloromethane. […] The amount of 17α-hydroxyprogesterone was about 40% (about 23% to 58% depending on the transformant) of the substract added (see FIG. 57 corresponding to 17α-3). No androstenedione, which was the product of the C17-20-lyase activity of P45017α, was detected.
# ^3H-labelled 17α-hydroxyprogesterone was also incubated with the transformants under the conditions described above and after 24 hours of incubation, no androstenedione was detected.
molecule,measurement,value
"bovine P45017α: bovine cytochrome P450 steroid 17α-hydroxylase expressed in K. lactis under the lactase promoter (protein, UniProt P05185 1-509, looked up) Steroid …: MWLLLAVFLLTLAYLFWPKTKHSGAKYPRSLPSLPLVGSLPFLPRRGQQHKNFFKLQEKYGPIYSFRLGSKTTVMIGHHQLAREVLLKKGKEFSGRPKVATLDILSDNQKGIAFADHGAHWQLHRKLALNAFALFKDGNLKLEKIINQEANVLCDFLATQHGEAIDLSEPLSLAVTNIISFICFNFSFKNEDPALKAIQNVNDGILEVLSKEVLLDIFPVLKIFPSKAMEKMKGCVQTRNELLNEILEKCQENFSSDSITNLLHILIQAKVNADNNNAGPDQDSKLLSNRHMLATIGDIFGAGVETTTSVIKWIVAYLLHHPSLKKRIQDDIDQIIGFNRTPTISDRNRLVLLEATIREVLRIRPVAPTLIPHKAVIDSSIGDLTIDKGTDVVVNLWALHHSEKEWQHPDLFMPERFLDPTGTQLISPSLSYLPFGAGPRSCVGEMLARQELFLFMSRLLQRFNLEIPDDGKLPSLEGHASLVLQIKPFKVKIEVRQAWKEAQAEGSTP",C17-20 lyase activity,does not show any activity C17-20 lyase
